Source: IntAct's records for PubMed 29892012

B1: Genetic suppressor element 1 (Homo sapiens), Q14687 (parent)
chain: MKGMSHEPKSPSLGMLSTATRTTATVNPLTPSPLNGALVPSGSPATSSALSAQAAPSSSFAAALRKLAKQAEEPRGSSLSSESSPVSSPATNHSSPASTPKRVPMGPIIVPPGGHSVPSTPPVVTIAPTKTVNGVWRSESRQDAGSRSSSGGRERLIVEPPLPQEKAGGPAIPSHLLSTPYPFGLSPSSVVQDSRFPPLNLQRPVHHVVPPSTVTEDYLRSFRPYHTTDDLRMSSLPPLGLDPATAAAYYHPSYLAPHPFPHPAFRMDDSYCLSALRSPFYPIPTPGSLPPLHPSAMHLHLSGVRYPPELSHSSLAALHSERMSGLSAERLQMDEELRREREREREREREREADREREKEREREREKEREQEKEREREKERERELERQREQRAREKELLAAKALEPSFLPVAELHGLRGHATEERGKPSEQLTPTRAEKLKDAGLQAPKPVQHPLHPVPTPHHTVPSLISNHGIFSLPSSSAATALLIQRTNEEEKWLARQRRLRQEKEDRQSQVSEFRQQVLEQHLDMGRPPVPAEAEHRPESTTRPGPNRHEPGGRDPPQHFGGPPPLISPKPQLHAAPTALWNPVSLMDNTLETRRAESHSLHSHPAAFEPSRQAAVPLVKVERVFCPEKAEEGPRKREPAPLDKYQPPPPPPREGGSLEHQPFLPGPGPFLAELEKSTQTILGQQRASLPQAATFGELSGPLKPGSPYRPPVPRAPDPAYIYDEFLQQRRRLVSKLDLEERRRREAQEKGYYYDLDDSYDESDEEEVRAHLRCVAEQPPLKLDTSSEKLEFLQLFGLTTQQQKEELVAQKRRKRRRMLRERSPSPPTIQSKRQTPSPRLALSTRYSPDEMNNSPNFEEKKKFLTIFNLTHISAEKRKDKERLVEMLRAMKQKALSAAVADSLTNSPRDSPAVSLSEPATQQASLDVEKPVGVAASLSDIPKAAEPGKLEQVRPQELSRVQELAPASGEKARLSEAPGGKKSLSMLHYIRGAAPKDIPVPLSHSTNGKSKPWEPFVAEEFAHQFHESVLQSTQKALQKHKGSVAVLSAEQNHKVDTSVHYNIPELQSSSRAPPPQHNGQQEPPTARKGPPTQELDRDSEEEEEEDDEDGEDEEEVPKRKWQGIEAVFEAYQEHIEEQNLERQVLQTQCRRLEARHYSLSLTAEQLSHSVAELRSQKQKMVSERERLQAELDHLRKCLALPAMHWPRGYLKGYPR
B2: Atos homolog protein B (Homo sapiens), Q7L5A3 (parent)
chain: MRHVQAEPSPSSEPEAGPSQPPVRQGALQGGLLMGYSPAGGATSPGVYQVSIFSPPAGTSEPHRALKRQAPSTEGPRELKRGPGLGAREGLPPEEPSTVGLLGPEGPGLGLGVASQHFSHRGLCVVEQRSSVTSSWTSGAWSPPCPPSNASCNTLHTRDWASPDPGGQGSLGESPGPAPPGQLHTLDTDLHSLAQIGGKSPVAGVGNGGSLWPRESPGTANGHSPEHTPPGPGPPGPCPTKRRLLPAGEAPDVSSEEEGPAPRRRRGSLGHPTAANSSDAKATPFWSHLLPGPKEPVLDPTDCGPMGRRLKGARRLKLSPLRSLRKGPGLLSPPSASPVPTPAVSRTLLGNFEESLLRGRFAPSGHIEGFTAEIGASGSYCPQHVTLPVTVTFFDVSEQNAPAPFLGIVDLNPLGRKGYSVPKVGTVQVTLFNPNQTVVKMFLVTFDFSDMPAAHMTFLRHRLFLVPVGEEGNANPTHRLLCYLLHLRFRSSRSGRLSLHGDIRLLFSRRSLELDTGLPYELQAVTEAPHNPRYSPLP
partner: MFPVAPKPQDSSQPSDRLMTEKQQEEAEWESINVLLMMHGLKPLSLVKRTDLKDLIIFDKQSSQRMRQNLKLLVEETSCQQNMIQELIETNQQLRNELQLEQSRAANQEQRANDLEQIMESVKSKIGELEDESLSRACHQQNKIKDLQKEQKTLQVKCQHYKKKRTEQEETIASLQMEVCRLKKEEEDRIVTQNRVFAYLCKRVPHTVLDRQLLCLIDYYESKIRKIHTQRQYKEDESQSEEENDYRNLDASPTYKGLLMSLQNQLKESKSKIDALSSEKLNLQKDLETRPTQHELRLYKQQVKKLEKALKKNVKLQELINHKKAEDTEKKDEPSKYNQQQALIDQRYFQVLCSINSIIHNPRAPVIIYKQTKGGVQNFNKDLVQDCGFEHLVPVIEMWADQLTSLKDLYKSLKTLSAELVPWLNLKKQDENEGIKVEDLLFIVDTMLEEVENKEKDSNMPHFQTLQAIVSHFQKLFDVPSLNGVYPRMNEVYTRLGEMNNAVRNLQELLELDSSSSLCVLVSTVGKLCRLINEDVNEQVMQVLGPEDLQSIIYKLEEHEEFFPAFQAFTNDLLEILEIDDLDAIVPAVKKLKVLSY

Variants of: B1
Settings: with rbpms_human RBPMS

Row | Variant | effect of a mutation on the interaction
1 | R503Q | with no effect

Variants of: B1
Settings: with rcor3_human RCOR3, Q9P2K3

Row | Variant | effect of a mutation on the interaction
2 | R503Q | with no effect

Variants of: B2
Settings: with cep70_human CEP70, Q8NHQ1

Row | Variant | effect of a mutation on the interaction
3 | C381Y | disrupting interaction strength
